Measured values from patent US20250073311A1, “DOSAGE REGIME” (ZEALAND PHARMA A/S, priority 2021, published 2025).
Numbered stars: 1 amine (or outer) side, 2 acyl side, 3 side chain; on linkers, the order of the positions; unused ones are H or OH. Square brackets hold non-standard residues; d marks the D form. Side chains are listed from the residue outwards. * marks the point of attachment. C18 diacid = O=C(O)CCCCCCCCCCCCCCCCC(=O)*; γGlu = O=C(O)[C@H](CCC(=O)[*:2])N[*:1]; Aib = CC(C)(N)C(=O)O

T1: human GLP-2 receptor (hGLP2-R) (human, UniProt O95838)
T1 sequence: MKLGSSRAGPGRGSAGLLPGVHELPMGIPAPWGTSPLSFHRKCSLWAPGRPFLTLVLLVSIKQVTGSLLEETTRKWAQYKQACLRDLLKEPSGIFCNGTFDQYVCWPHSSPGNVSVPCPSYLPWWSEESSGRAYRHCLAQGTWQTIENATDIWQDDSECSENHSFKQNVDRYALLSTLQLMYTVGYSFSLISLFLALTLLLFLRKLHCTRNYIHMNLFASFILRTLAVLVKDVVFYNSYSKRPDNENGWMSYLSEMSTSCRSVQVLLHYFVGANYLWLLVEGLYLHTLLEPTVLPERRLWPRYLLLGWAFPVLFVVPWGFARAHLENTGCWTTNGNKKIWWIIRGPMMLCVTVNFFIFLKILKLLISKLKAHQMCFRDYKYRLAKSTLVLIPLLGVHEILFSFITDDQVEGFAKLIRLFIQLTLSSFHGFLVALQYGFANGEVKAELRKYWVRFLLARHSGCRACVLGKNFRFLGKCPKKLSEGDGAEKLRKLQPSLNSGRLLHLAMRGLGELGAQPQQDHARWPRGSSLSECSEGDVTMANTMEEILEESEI


Assays:
[1] = target: T1, human GLP-2 receptor (hGLP2-R); experiment: cell-based or functional assay
[2] = target: human glucagon-like peptide 1 receptor (GLP-1R) (human, UniProt P43220); experiment: cell-based or functional assay

Binder	EC50 GLP-2 (nM), cAMP AlphaScreen [1] [nM]	EC50 GLP-1 (nM), cAMP AlphaScreen [2] [nM]
H-H[Aib]EGTFTSELATILDK([γGlu-C18 diacid])QAARDFIAWLIQHKITD-OH (SMILES CC[C@H](C)[C@H](NC(=O)[C@H](Cc1ccccc1)NC(=O)[C@H](CC(=O)O)NC(=O)[C@H](CCCNC(=N)N)NC(=O)[C@H](C)NC(=O)[C@H](C)NC(=O)[C@H](CCC(N)=O)NC(=O)[C@H](CCCCNC(=O)CC[C@H](NC(=O)CCCCCCCCCCCCCCCCC(=O)O)C(=O)O)NC(=O)[C@H](CC(=O)O)NC(=O)[C@H](CC(C)C)NC(=O)[C@@H](NC(=O)[C@@H](NC(=O)[C@H](C)NC(=O)[C@H](CC(C)C)NC(=O)[C@H](CCC(=O)O)NC(=O)[C@H](CO)NC(=O)[C@@H](NC(=O)[C@H](Cc1ccccc1)NC(=O)[C@@H](NC(=O)CNC(=O)[C@H](CCC(=O)O)NC(=O)C(C)(C)NC(=O)[C@@H](N)Cc1c[nH]cn1)[C@@H](C)O)[C@@H](C)O)[C@@H](C)O)[C@@H](C)CC)C(=O)N[C@@H](C)C(=O)N[C@@H](Cc1c[nH]c2ccccc12)C(=O)N[C@@H](CC(C)C)C(=O)N[C@H](C(=O)N[C@@H](CCC(N)=O)C(=O)N[C@@H](Cc1c[nH]cn1)C(=O)N[C@@H](CCCCN)C(=O)N[C@H](C(=O)N[C@H](C(=O)N[C@@H](CC(=O)O)C(=O)O)[C@@H](C)O)[C@@H](C)CC)[C@@H](C)CC) [Compound 19]	0.23	0.066
H-H[Aib]EGTFSSELATILDK([γGlu-C18 diacid])QAARDFIAWLIEHKITD-OH (SMILES CC[C@H](C)[C@H](NC(=O)[C@H](Cc1ccccc1)NC(=O)[C@H](CC(=O)O)NC(=O)[C@H](CCCNC(=N)N)NC(=O)[C@H](C)NC(=O)[C@H](C)NC(=O)[C@H](CCC(N)=O)NC(=O)[C@H](CCCCNC(=O)CC[C@H](NC(=O)CCCCCCCCCCCCCCCCC(=O)O)C(=O)O)NC(=O)[C@H](CC(=O)O)NC(=O)[C@H](CC(C)C)NC(=O)[C@@H](NC(=O)[C@@H](NC(=O)[C@H](C)NC(=O)[C@H](CC(C)C)NC(=O)[C@H](CCC(=O)O)NC(=O)[C@H](CO)NC(=O)[C@H](CO)NC(=O)[C@H](Cc1ccccc1)NC(=O)[C@@H](NC(=O)CNC(=O)[C@H](CCC(=O)O)NC(=O)C(C)(C)NC(=O)[C@@H](N)Cc1c[nH]cn1)[C@@H](C)O)[C@@H](C)O)[C@@H](C)CC)C(=O)N[C@@H](C)C(=O)N[C@@H](Cc1c[nH]c2ccccc12)C(=O)N[C@@H](CC(C)C)C(=O)N[C@H](C(=O)N[C@@H](CCC(=O)O)C(=O)N[C@@H](Cc1c[nH]cn1)C(=O)N[C@@H](CCCCN)C(=O)N[C@H](C(=O)N[C@H](C(=O)N[C@@H](CC(=O)O)C(=O)O)[C@@H](C)O)[C@@H](C)CC)[C@@H](C)CC) [Compound 20]	0.37	0.55
H-H[Aib]EGTFSSELATILDK([γGlu-C18 diacid])QAARDFIAWLIAHKITD-OH (SMILES CC[C@H](C)[C@H](NC(=O)[C@H](CC(C)C)NC(=O)[C@H](Cc1c[nH]c2ccccc12)NC(=O)[C@H](C)NC(=O)[C@@H](NC(=O)[C@H](Cc1ccccc1)NC(=O)[C@H](CC(=O)O)NC(=O)[C@H](CCCNC(=N)N)NC(=O)[C@H](C)NC(=O)[C@H](C)NC(=O)[C@H](CCC(N)=O)NC(=O)[C@H](CCCCNC(=O)CC[C@H](NC(=O)CCCCCCCCCCCCCCCCC(=O)O)C(=O)O)NC(=O)[C@H](CC(=O)O)NC(=O)[C@H](CC(C)C)NC(=O)[C@@H](NC(=O)[C@@H](NC(=O)[C@H](C)NC(=O)[C@H](CC(C)C)NC(=O)[C@H](CCC(=O)O)NC(=O)[C@H](CO)NC(=O)[C@H](CO)NC(=O)[C@H](Cc1ccccc1)NC(=O)[C@@H](NC(=O)CNC(=O)[C@H](CCC(=O)O)NC(=O)C(C)(C)NC(=O)[C@@H](N)Cc1c[nH]cn1)[C@@H](C)O)[C@@H](C)O)[C@@H](C)CC)[C@@H](C)CC)C(=O)N[C@@H](C)C(=O)N[C@@H](Cc1c[nH]cn1)C(=O)N[C@@H](CCCCN)C(=O)N[C@H](C(=O)N[C@H](C(=O)N[C@@H](CC(=O)O)C(=O)O)[C@@H](C)O)[C@@H](C)CC) [Compound 21]	0.27	1.8
H-H[Aib]EGSFTSELATILDK([γGlu-C18 diacid])QAARDFIAWLIAHKITD-OH (SMILES CC[C@H](C)[C@H](NC(=O)[C@H](CC(C)C)NC(=O)[C@H](Cc1c[nH]c2ccccc12)NC(=O)[C@H](C)NC(=O)[C@@H](NC(=O)[C@H](Cc1ccccc1)NC(=O)[C@H](CC(=O)O)NC(=O)[C@H](CCCNC(=N)N)NC(=O)[C@H](C)NC(=O)[C@H](C)NC(=O)[C@H](CCC(N)=O)NC(=O)[C@H](CCCCNC(=O)CC[C@H](NC(=O)CCCCCCCCCCCCCCCCC(=O)O)C(=O)O)NC(=O)[C@H](CC(=O)O)NC(=O)[C@H](CC(C)C)NC(=O)[C@@H](NC(=O)[C@@H](NC(=O)[C@H](C)NC(=O)[C@H](CC(C)C)NC(=O)[C@H](CCC(=O)O)NC(=O)[C@H](CO)NC(=O)[C@@H](NC(=O)[C@H](Cc1ccccc1)NC(=O)[C@H](CO)NC(=O)CNC(=O)[C@H](CCC(=O)O)NC(=O)C(C)(C)NC(=O)[C@@H](N)Cc1c[nH]cn1)[C@@H](C)O)[C@@H](C)O)[C@@H](C)CC)[C@@H](C)CC)C(=O)N[C@@H](C)C(=O)N[C@@H](Cc1c[nH]cn1)C(=O)N[C@@H](CCCCN)C(=O)N[C@H](C(=O)N[C@H](C(=O)N[C@@H](CC(=O)O)C(=O)O)[C@@H](C)O)[C@@H](C)CC) [Compound 22]	0.2	0.23
H-H[Aib]EGTFTSELATILDK([γGlu-C18 diacid])QAARDFIAWLIAHKITD-OH (SMILES CC[C@H](C)[C@H](NC(=O)[C@H](CC(C)C)NC(=O)[C@H](Cc1c[nH]c2ccccc12)NC(=O)[C@H](C)NC(=O)[C@@H](NC(=O)[C@H](Cc1ccccc1)NC(=O)[C@H](CC(=O)O)NC(=O)[C@H](CCCNC(=N)N)NC(=O)[C@H](C)NC(=O)[C@H](C)NC(=O)[C@H](CCC(N)=O)NC(=O)[C@H](CCCCNC(=O)CC[C@H](NC(=O)CCCCCCCCCCCCCCCCC(=O)O)C(=O)O)NC(=O)[C@H](CC(=O)O)NC(=O)[C@H](CC(C)C)NC(=O)[C@@H](NC(=O)[C@@H](NC(=O)[C@H](C)NC(=O)[C@H](CC(C)C)NC(=O)[C@H](CCC(=O)O)NC(=O)[C@H](CO)NC(=O)[C@@H](NC(=O)[C@H](Cc1ccccc1)NC(=O)[C@@H](NC(=O)CNC(=O)[C@H](CCC(=O)O)NC(=O)C(C)(C)NC(=O)[C@@H](N)Cc1c[nH]cn1)[C@@H](C)O)[C@@H](C)O)[C@@H](C)O)[C@@H](C)CC)[C@@H](C)CC)C(=O)N[C@@H](C)C(=O)N[C@@H](Cc1c[nH]cn1)C(=O)N[C@@H](CCCCN)C(=O)N[C@H](C(=O)N[C@H](C(=O)N[C@@H](CC(=O)O)C(=O)O)[C@@H](C)O)[C@@H](C)CC) [Compound 23]	0.24	0.13
H-H[Aib]EGSFTSELATILDK([γGlu-C18 diacid])QAARDFIAWLIEHKITD-OH (SMILES CC[C@H](C)[C@H](NC(=O)[C@H](Cc1ccccc1)NC(=O)[C@H](CC(=O)O)NC(=O)[C@H](CCCNC(=N)N)NC(=O)[C@H](C)NC(=O)[C@H](C)NC(=O)[C@H](CCC(N)=O)NC(=O)[C@H](CCCCNC(=O)CC[C@H](NC(=O)CCCCCCCCCCCCCCCCC(=O)O)C(=O)O)NC(=O)[C@H](CC(=O)O)NC(=O)[C@H](CC(C)C)NC(=O)[C@@H](NC(=O)[C@@H](NC(=O)[C@H](C)NC(=O)[C@H](CC(C)C)NC(=O)[C@H](CCC(=O)O)NC(=O)[C@H](CO)NC(=O)[C@@H](NC(=O)[C@H](Cc1ccccc1)NC(=O)[C@H](CO)NC(=O)CNC(=O)[C@H](CCC(=O)O)NC(=O)C(C)(C)NC(=O)[C@@H](N)Cc1c[nH]cn1)[C@@H](C)O)[C@@H](C)O)[C@@H](C)CC)C(=O)N[C@@H](C)C(=O)N[C@@H](Cc1c[nH]c2ccccc12)C(=O)N[C@@H](CC(C)C)C(=O)N[C@H](C(=O)N[C@@H](CCC(=O)O)C(=O)N[C@@H](Cc1c[nH]cn1)C(=O)N[C@@H](CCCCN)C(=O)N[C@H](C(=O)N[C@H](C(=O)N[C@@H](CC(=O)O)C(=O)O)[C@@H](C)O)[C@@H](C)CC)[C@@H](C)CC) [Compound 24]	0.17	0.21
H-H[Aib]EGTFTSELATILDK([γGlu-C18 diacid])QAARDFIAWLIEHKITD-OH (SMILES CC[C@H](C)[C@H](NC(=O)[C@H](Cc1ccccc1)NC(=O)[C@H](CC(=O)O)NC(=O)[C@H](CCCNC(=N)N)NC(=O)[C@H](C)NC(=O)[C@H](C)NC(=O)[C@H](CCC(N)=O)NC(=O)[C@H](CCCCNC(=O)CC[C@H](NC(=O)CCCCCCCCCCCCCCCCC(=O)O)C(=O)O)NC(=O)[C@H](CC(=O)O)NC(=O)[C@H](CC(C)C)NC(=O)[C@@H](NC(=O)[C@@H](NC(=O)[C@H](C)NC(=O)[C@H](CC(C)C)NC(=O)[C@H](CCC(=O)O)NC(=O)[C@H](CO)NC(=O)[C@@H](NC(=O)[C@H](Cc1ccccc1)NC(=O)[C@@H](NC(=O)CNC(=O)[C@H](CCC(=O)O)NC(=O)C(C)(C)NC(=O)[C@@H](N)Cc1c[nH]cn1)[C@@H](C)O)[C@@H](C)O)[C@@H](C)O)[C@@H](C)CC)C(=O)N[C@@H](C)C(=O)N[C@@H](Cc1c[nH]c2ccccc12)C(=O)N[C@@H](CC(C)C)C(=O)N[C@H](C(=O)N[C@@H](CCC(=O)O)C(=O)N[C@@H](Cc1c[nH]cn1)C(=O)N[C@@H](CCCCN)C(=O)N[C@H](C(=O)N[C@H](C(=O)N[C@@H](CC(=O)O)C(=O)O)[C@@H](C)O)[C@@H](C)CC)[C@@H](C)CC) [Compound 25]	0.33	0.094
